Target: SARS-CoV-2 spike ECD S-2P (SARS-CoV-2) (UniProt P0DTC2)

Substance CR3022 (antibody) has an EC50 of 3.6 nM.

— patent US20240327503A1
